B1: IKKα-ΔLH (protein)
chain: MERPPGLRPGAGGPWEMRERLGTGGFGNVSLYQHRELDLKIAIKSCRLELSSKNRERWCHEIQIMKKLDHANVVKACDVPEELNFLINDVPLLAMEYCSGGDLRKLLNKPENCCGLKESQILSLLSDIGSGIRYLHENKIIHRDLKPENIVLQDVGGKTIHKIIDLGYAKDVDQGSLCTSFVGTLQYLAPELFENKPYTATVDYWSFGTMVFECIAGYRPFLHHLQPFTWHEKIKKKDPKCIFACEEMTGEVRFSSHLPQPNSLCSLIVEPMESWLQLMLNWDPQQRGGPIDLTLKQPRCFALMDHILNLKIVHILNMTSAKIISFLLPCDESLHSLQSRIERETGINTGSQELLSETGISLDPRKPASQCVLDGVRGCDSYMVYLFDKSKTVYEGPFASRSLSDCVNYIVQDSKIQLPIIQLRKVWAEAVHYVSGLKEDYSRLFQGQRAAIFRKNVKSMERNGRKGHSLF
B2: IKKα/CHUK (protein)
chain: MERPPGLRPGAGGPWEMRERLGTGGFGNVSLYQHRELDLKIAIKSCRLELSSKNRERWCHEIQIMKKLDHANVVKACDVPEELNFLINDVPLLAMEYCSGGDLRKLLNKPENCCGLKESQILSLLSDIGSGIRYLHENKIIHRDLKPENIVLQDVGGKTIHKIIDLGYAKDVDQGSLCTSFVGTLQYLAPELFENKPYTATVDYWSFGTMVFECIAGYRPFLHHLQPFTWHEKIKKKDPKCIFACEEMTGEVRFSSHLPQPNSLCSLIVEPMESWLQLMLNWDPQQRGGPIDLTLKQPRCFALMDHILNLKIVHILNMTSAKIISFLLPCDESLHSLQSRIERETGINTGSQELLSETGISLDPRKPASQCVLDGVRGCDSYMVYLFDKSKTVYEGPFASRSLSDCVNYIVQDSKIQLPIIQLRKVWAEAVHYVSGLKEDYSRLFQGQRAAMLSLLRYNANLTKMKNTLISASQQLKAKLEFFRKSIQLDLERYSEQMTYGISSEKMLKAWKEMEEKAIHYSEVGVIGYLEDQIMSLHTEIMELQKSPYGRRQGDLMESLEQRAIDLYKQLKHRPPDHLYSDSTEMVKIIVHTVQSQDRVLKELFGHLSKLLGCKQKIIDLLPKVEVALSNIKEADNTVMFMQGKRQKEIWHLLKIACTQSSARSLVGSSLEGTVTPPVSAWLPPTLADREHPLTCVVTPQDGETLAQMIEENLNCLGHLSTIIREANEDQSSSLMSLDWSWLAE
B3: IKKα-ΔCm (protein)
chain: MERPPGLRPGAGGPWEMRERLGTGGFGNVSLYQHRELDLKIAIKSCRLELSSKNRERWCHEIQIMKKLDHANVVKACDVPEELNFLINDVPLLAMEYCSGGDLRKLLNKPENCCGLKESQILSLLSDIGSGIRYLHENKIIHRDLKPENIVLQDVGGKTIHKIIDLGYAKDVDQGSLCTSFVGTLQYLAPELFENKPYTATVDYWSFGTMVFECIAGYRPFLHHLQPFTWHEKIKKKDPKCIFACEEMTGEVRFSSHLPQPNSLCSLIVEPMESWLQLMLNWDPQQRGGPIDLTLKQPRCFALMDHILNLKIVHILNMTSAKIISFLLPCDESLHSLQSRIERETGINTGSQELLSETGISLDPRKPASQCVLDGVRGCDSYMVYLFDKSKTVYEGPFASRSLSDCVNYIVQDSKIQLPIIQLRKVWAEAVHYVSGLKEDYSRLFQGQRAA

Molecular target: GST-IκBα (1-62)

Question: For B1, which “immunoprecipitatable kinase activity towards GST-IκBα(1-62)” value is on record?
Answer: Its value is “TNF-α stimulation of HEK293 cells transfected with each IKKα/CHUK isoform resulted in an increase in immunoprecipitatable kinase activity towards GST-IκBα(1-62)”.

Question: B2 was tested. Which “immunoprecipitatable kinase activity towards GST-IκBα(1-62)” value did it give?
Answer: The value was “TNF-α stimulation of HEK293 cells transfected with each IKKα/CHUK isoform resulted in an increase in immunoprecipitatable kinase activity towards GST-IκBα(1-62)”.

Question: How did the “immunoprecipitatable kinase activity towards GST-IκBα(1-62)” value turn out when B3 was run?
Answer: Its value is “TNF-α stimulation of HEK293 cells transfected with each IKKα/CHUK isoform resulted in an increase in immunoprecipitatable kinase activity towards GST-IκBα(1-62)”.

Source: patent US20030073111
